Assay results: paper PMC10403546 (Nature Communications, 2023)

Experiments:
Assay in all cases: SPR
Settings in all cases: both partners purified
[1] = molecular target: T1, Q769 UFO (subtype A Env of Q769_d22) (HIV-1 Q769_d22 (subtype A), UniProt Q8JDJ1, stabilised)
T1 construct: source: FreeStyle 293F, transient transfection (PEI), purified (GNL resin, SEC)

[2] = molecular target: T2, X18 UFO (CRF01_AE Env), wild type, for SPR (HIV-1 BJOX018000.e12 (X18, CRF01_AE), stabilised)
T2 construct: source: FreeStyle 293F, transient transfection (PEI), purified (GNL resin, SEC)

[3] = molecular target: T3, BG505 SOSIP-His (subtype A Env trimer) (HIV-1 BG505 (subtype A), UniProt Q2N0S6, stabilised)
T3 construct: copies: 3 + 3

[4] = molecular target: T4, X18 SOSIP-His (CRF01_AE Env trimer in SOSIP design) (HIV-1 BJOX018000.e12 (X18, CRF01_AE), UniProt A0A0E3EAY4, stabilised)
T4 construct: copies: 3 + 3

[5] = molecular target: T5, X16 SOSIP-His (CRF07_BC Env trimer in SOSIP design) (HIV-1 BJOX016000.e15 (X16, CRF07_BC), UniProt A0A0E3EAD6, stabilised)
T5 construct: copies: 3 + 3

Binder | binding result [1] | Kd [2] | binding result [3] | binding result [4] | binding result [5]
bNAb F6 Fab (for SPR) (Fab, V domains shown) VH: QVQLQQWGTGLLKPSETLSLTCAVYGVSLRGYYWTWIRQSPKKGLEWIGEIDEIGRTKYSQSLRSRATLSIDTSKKQFSLRLTSVTAADMATYYCARWRLMMVDEVTRHGMDVWSQGTMVTVSS VL: DIVMTQSPLSLSVAPGEAASISCRSTQSLLNRNGDNYLEWYLRRPGRSPQLLIYLGSERALGVPDRFSGSGSGRDFTLKISRVEAQDVGTYYCLQTRQGAFTFGQGTKLEIK | binds | 0.041 nM | – | – | –
bNAb 8ANC195 Fab (for SPR) (Fab, V domains shown) VH: QIHLVQSGTEVKKPGSSVTVSCKAYGVNTFGLYAVNWVRQAPGQSLEYIGQIWRWKSSASHHFRGRVLISAVDLTGSSPPISSLEIKDLTSDDTAVYFCTTTSTYDKWSGLHHDGVMAFSSWGQGTLISVSA VL: DIQMTQSPSTLSASIGDTVRISCRASQSITGNWVAWYQQRPGKAPRLLIYRGAALLGGVPSRFSGSAAGTDFTLTIGNLQAEDFGTFYCQQYDTYPGTFGQGTKVEVK | – | – | binds | binds | binds
